The text below walks through data of article PMC6219519.

Test [1] concerns the target (H3-H4)2 tetramer (wild type Xenopus laevis recombinant histones) (Xenopus laevis) (UniProt P84233). Nature of the test: FRET or BRET; single-molecule FRET with multi-parameter fluorescence detection, dynPDA and trace analysis, global four-state kinetic model; IβIα-wt nucleosomes on 170 bp Widom 601 DNA (dyes on the DNA), 20 pM labelled, total concentration varied with unlabelled nucleosomes; 150 mM NaCl, TE buffer pH 7.5, 1 mM ascorbic acid, 0.01% Nonidet P40; hexasome and tetramer stand on the DNA. (In general: Bioluminescence resonance energy transfer reports proximity on the nanometre scale.)

Test [2] has as its target hexasome: (H3-H4)2 tetramer with one H2A-H2B dimer on 170 bp Widom 601 DNA (Xenopus laevis) (UniProt P84233). Described as above.

The term Kd denotes the equilibrium constant for the complex coming apart.

As for “H2A-H2B dimer (wild type Xenopus laevis recombinant histones) (from UniProt P06897 2-120; P02281 2-126) (complex)”, in test [1], the Kd is more than 2 pM and the relaxation time tR of hexasome/tetrasome exchange (estimated for [H2A-H2B] ≈10 pM) was more than 10000 s. Further, in test [2], the Kd turned out to be 0.039 nM and the relaxation time tR of octasome/hexasome exchange (estimated for [H2A-H2B] ≈10 pM) is less than 300 s.
